Measured values from paper doi:10.1101/2021.07.30.454553 (bioRxiv, 2021).

Biological target: T1, full-length human kinesin-1 heavy chain (KIF5B) (human, UniProt P33176 1-963, LD555, LD655 or Alexa488 label (imaging assays))
T1 sequence (looked up): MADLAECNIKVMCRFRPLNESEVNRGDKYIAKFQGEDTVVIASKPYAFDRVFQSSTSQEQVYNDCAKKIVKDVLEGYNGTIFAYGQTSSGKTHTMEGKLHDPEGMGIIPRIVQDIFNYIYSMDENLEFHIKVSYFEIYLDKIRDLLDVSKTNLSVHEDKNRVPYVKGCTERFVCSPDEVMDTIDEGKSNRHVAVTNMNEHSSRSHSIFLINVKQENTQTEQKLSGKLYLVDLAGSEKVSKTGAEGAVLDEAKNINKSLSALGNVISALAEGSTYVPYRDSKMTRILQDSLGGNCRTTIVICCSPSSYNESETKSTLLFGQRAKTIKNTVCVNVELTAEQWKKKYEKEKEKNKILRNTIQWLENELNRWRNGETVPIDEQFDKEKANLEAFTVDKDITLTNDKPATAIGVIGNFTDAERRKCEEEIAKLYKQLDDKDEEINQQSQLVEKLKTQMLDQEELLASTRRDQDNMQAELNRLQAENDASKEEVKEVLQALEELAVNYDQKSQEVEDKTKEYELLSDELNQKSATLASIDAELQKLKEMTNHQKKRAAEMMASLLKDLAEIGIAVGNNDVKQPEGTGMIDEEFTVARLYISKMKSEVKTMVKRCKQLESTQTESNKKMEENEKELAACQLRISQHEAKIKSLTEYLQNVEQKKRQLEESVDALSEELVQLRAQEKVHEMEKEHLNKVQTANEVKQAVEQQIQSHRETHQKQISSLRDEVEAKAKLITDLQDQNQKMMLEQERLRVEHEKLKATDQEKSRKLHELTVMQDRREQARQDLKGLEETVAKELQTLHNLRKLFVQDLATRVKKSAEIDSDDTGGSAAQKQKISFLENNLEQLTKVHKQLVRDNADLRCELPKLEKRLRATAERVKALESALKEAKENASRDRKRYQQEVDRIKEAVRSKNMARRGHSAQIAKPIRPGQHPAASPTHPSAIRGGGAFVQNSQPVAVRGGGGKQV
Assay: single-molecule colocalisation on microtubules

B1: TRAK1^1-532 (domain or fragment, human, UniProt Q9UPV9 1-532, looked up)
chain: MALVFQFGQPVRAQPLPGLCHGKLIRTNACDVCNSTDLPEVEIISLLEEQLPHYKLRADTIYGYDHDDWLHTPLISPDANIDLTTEQIEETLKYFLLCAERVGQMTKTYNDIDAVTRLLEEKERDLELAARIGQSLLKKNKTLTERNELLEEQVEHIREEVSQLRHELSMKDELLQFYTSAAEESEPESVCSTPLKRNESSSSVQNYFHLDSLQKKLKDLEEENVVLRSEASQLKTETITYEEKEQQLVNDCVKELRDANVQIASISEELAKKTEDAARQQEEITHLLSQIVDLQKKAKACAVENEELVQHLGAAKDAQRQLTAELRELEDKYAECMEMLHEAQEELKNLRNKTMPNTTSRRYHSLGLFPMDSLAAEIEGTMRKELQLEEAESPDITHQKRVFETVRNINQVVKQRSLTPSPMNIPGSNQSSAMNSLLSSCVSTPRSSFYGSDIGNVVLDNKTNSIILETEAADLGNDERSKKPGTPGTPGSHDLETALRRLSLRRENYLSERRFFEEEQERKLQELAEKGE
modifications: LD555 dye on the SNAP tag (imaging assays)
B1: binds.
